“And” between values parts separate entries of the source, which are not always exact repeats. Equal values may be shown once.
What was measured:
[1] = molecular target: HIV-1 reverse transcriptase p66 subunit (wild type) (HIV-1) (UniProt P03366); test: pre-steady-state activity assay
[2] = molecular target: HIV-1 reverse transcriptase p66 subunit (wild type) (HIV-1) (UniProt P03366); test: intrinsic tryptophan fluorescence kinetics
[3] = molecular target: HIV-1 reverse transcriptase p51 p51 (Human immunodeficiency virus 1) (UniProt O93215); conditions: cited from earlier work
[4] = molecular target: HIV-1 reverse transcriptase p66 p66 (Human immunodeficiency virus 1) (UniProt O93215); conditions: cited from earlier work
[5] = molecular target: p66^S3C/C38V/C280S labeled with QSY9 (HIV-1); test: FRET or BRET
[6] = molecular target: p66^S3C/C38V/C280S labeled with A488 (HIV-1); test: FRET or BRET

**Q.** Which kobs (0.5 µM p66, 0.5 µM p51) [1] does the source give for “HIV-1 reverse transcriptase p51 subunit (wild type) (from UniProt P03366 600-1039) (natural protein)” here?
**A.** 5.8e-06 s⁻¹

**Q.** And the kobs (0.5 µM p66, 2.5 µM p51) [1]?
**A.** 7.8e-06 s⁻¹

**Q.** What about the kdiss(1), slower major component of the two-exponential fit [2] of the same substance?
**A.** 3.6e-06 s⁻¹

**Q.** And the kdiss(2), faster minor component of the two-exponential fit [2]?
**A.** 7.6e-05 s⁻¹

**Q.** What about the kobs (0.5 µM p66, 0.5 µM p51) [2] of the same substance?
**A.** 5.4e-06 s⁻¹

**Q.** For “HIV-1 reverse transcriptase p66 p66 (from UniProt O93215)”, which Kd [3] is on record?
**A.** 0.31 µM

**Q.** And the Kd [4]?
**A.** 4.2 µM

**Q.** With “p51^S3C/C38V/C280S labeled with A488 (natural protein)” as the substance, how does the kobs (0.5 µM p66-QSY9, 0.5 µM p51-A488) [5] read?
**A.** 3.4e-06 s⁻¹

**Q.** And the koff [5]?
**A.** 1.9e-06 s⁻¹

**Q.** Which kobs (0.5 µM p66-A488, 0.5 µM p51-QSY9) [6] does the source give for “p51^S3C/C38V/C280S labeled with QSY9 (natural protein)” here?
**A.** 4.1e-06 s⁻¹

**Q.** And the kobs (0.5 µM p66-A488, 1.5 µM p51-QSY9) [6]?
**A.** 4.8e-06 s⁻¹

**Q.** What about the kobs (0.5 µM p66-A488, 2.0 µM p51-QSY9) [6] of the same substance?
**A.** 5.7e-06 s⁻¹

**Q.** What about the kobs (0.5 µM p66-A488, 2.5 µM p51-QSY9) [6] of the same substance?
**A.** 7.1e-06 s⁻¹

**Q.** What about the koff [6] of the same substance?
**A.** 2.5e-06 s⁻¹

**Q.** What about the kon [6] of the same substance?
**A.** 1.6 M⁻¹ s⁻¹ and 1.8 M⁻¹ s⁻¹

Reference: paper PMC2770954
